In the domain aggregation screens of Martell et al. (2025):

assay: soluble fraction after stress (log2 fold change); higher = more stays soluble; pooled small domains, quantitative proteomics; conditions: stress: pH 4
How it was run: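 With high-throughput quantitative proteomics, pooled custom libraries of small protein domains were measured after pH 4 stress. Each domain's soluble amount after the stress gives a fold change taken as aggregation propensity. Higher log2 values mean more of the domain stayed soluble.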

“HMELPADLATVLSVDDIRAIALAEVPGSTITGVELEREEGVLVYKVKFNDGSYKLYDANTGELV” and “HMSDDSYLVALAEAYKNATSWDIRRQVLSIMTGVSSYKEISRYIPGLTQYRLSISNLHRLQYGRAAPVP” are within 0.2 log units of each other in “soluble fraction (log2)” value: -0.238 for the first, -0.217 for the second.

Compared with “HMERAFRILELFDLKQDELPITEIAERTGLPISTAHRLLSTLETLGYIAQNPDNGRYRLGLQTFVLGSR”, “HMDPVATLTPREREVLELMAEGRTNAGIAEAMVVTEGAVEKHIQRIFAKLGLHADGGVHRRVAAVLALLG” is higher in “soluble fraction (log2)” value: -1.3 for the first, -0.872 for the second.

Compared with “HMQEVILEKIQLTYLSADKLSKMAEQFSIPVKMYWVDENPMMLMVMGNESDIATFKKVLTQIDIPENKS”, “HMATLAVPNLMRLSQGEAMALIRLSGLSIGNVSIDSSMGSPRVIRQEPQASGGMLVLTQGDQVHLWLEGP” is lower in “soluble fraction (log2)” value: -1.04 for the first, -2.08 for the second.

Going from “HMNIGVEQIEQMERGALITLWQELIDKPLPRHMSIVFLRQVLAFEVQSKQNGGLPRGFITLLNKQAD” to “HMAAEGARNNSLFNSLRERALEVSSHNELEQIAFKMNETNIPPLRASEVISVVNSVWKNRISNQIIP”, the “soluble fraction (log2)” value rises from -0.868 to -0.0841.

First: HMNMVSGHLQVKKGYYYAVLSFYDSKNKRHVKYISTGLPEKGNKRKAEAELVKIRNAFEPPAE
Second: HMGKHYLLKDDNGTITIYKILEDGTQEVYEKTEISTTYLPQTDNIGIKQGIRVNGDEALNELIENF
The “soluble fraction (log2)” value of the first is higher: -0.0995 for the first, -0.821 for the second.

First: HMDILPRMVASEMRAVGVPPERMTREEKGTVIRNLMNAGIHQMKGAVVEIARQLHLSEPTVYRYIKREKG
Second: HMETFGEKDLDELIGRNVELITHDGKVREGLVDSVDRYNVSLVRYLDAGEVAMMVRRREVKAVRLK
The “soluble fraction (log2)” value of the first is higher: -0.177 for the first, -1.12 for the second.

“HMKKYLIIDAANEKIIFKIIDNNKTYTNDYENSRKNFDRFAVLLFNFLNKNMISFDTIDKAL” and “HMTINPFSTLAVRELEILHYLLNGHRTKEIATNLGLKMNTVSTIKSNIFEKVKADSFTHLLQLAHVHQIS” are within 0.2 log units of each other in “soluble fraction (log2)” value: -0.19 for the first, -0.0952 for the second.

Going from “HMTRQKEAILALLTDSRGEALSASELLARLTRSGSSIGRTTVYRLLSQLVDDGVVRAWRDASRGITLYELS” to “HMGTLSLLVQKLMAVGLEGAKASEIVERFDRERIERQINALPSRKIKSSRTGFLIRAIELDIPVE”, the “soluble fraction (log2)” value falls from -0.44 to -1.31.

“HMKISDLPAAQVYREIVHAWPKAAAYADLAPINNGGMQRWRDVVHEWVLRGYNPANLRGMLEWYKAGIPTR” and “HMLAQVSDEGPIRAMVEAVMARSTQQLEDYKNGKVKLRQYFFGEVMKAAKGKANPTVINKLLDEMLPETL” are within 0.2 log units of each other in “soluble fraction (log2)” value: -0.132 for the first, 0.0418 for the second.

Compared with “HMGSLAVVPSLTGKTLQEAQSKAADYGLALEIEGYVASTAVDYGRIVSQSPDAGFSVKSGSSVKVSVSAG”, “HMGPSLIRIASNPVAEVFIDGTRVGTTPFEMPADGTLKTVRLTAKDHDDLVVPLRSMKSMEIMLTLRRI” is lower in “soluble fraction (log2)” value: ≥ 0.43 for the first, -0.136 for the second.

Compared with “HMDRWSLLTLTTLAGGTLRFTELKRAIGDISQRMLAQTLRTLEREGYVSRKVYATIPPKVEYRLTALGQSL”, “HMISDEELLVSTKKEIMSLATVLTKTDKKDDAIAIMKEYDPAANPNRIKDVNKAKELLERLQKLG” is lower in “soluble fraction (log2)” value: ≥ 0.43 for the first, -0.104 for the second.

Going from “HMPDFAENAVYGKQREDSLYAHAYKHFQLGDTTTVRAAEHLSAEIYPLGQHRPKFMFLNAVTR” to “HMSTRLIGEIGVVTKDLGAGLKENGSIQIGREEWPAETKDMEHIPMGTRVKVIHIEGTRLVVEA”, the “soluble fraction (log2)” value falls from 0.22 to -0.266.

Going from “HMDSSNLSLIAGVGPTIEKKLRAAGITSWEQIAAWTEADVAKYDEELNLRGRITRDEWIEQAKELLAGKPP” to “HMALTLDEARTQGRVGETFYGYLVALKTDAETEKLVNDINAERKASYQQLAKQNNVSVDDIAKLAGQKLV”, the “soluble fraction (log2)” value falls from 0.309 to -0.113.

First: HMNNLVGKTKVLKSNTNIYAYKTMSGKFYSYLPNTRVRVLQDLGYINYIEVIATKRRGYVYENVY
Second: HMKTMEQSYIGRKIILDENVEDSALIKFEGIYWTFKSVSGPLKKGTEVEIIGIEGNKILIKNK
The “soluble fraction (log2)” value of the first is lower: -0.165 for the first, 0.181 for the second.

Compared with “HMEKEYMKNVVGMEYRQARVLLGDMGLELAFQPVYETSDKYPTDVVVSTEPAADQPLTKGQTVILHIST”, “HMPFTLDGVNEGSRNDQAARMSGYLISKNLNMDFIKFFMQSWNRQNSPPLSQREINSVVDNVKRTHDRKNK” is lower in “soluble fraction (log2)” value: 0.299 for the first, -0.697 for the second.

Compared with “HMDEYFNPETVVHYLRELFDTYRENGGNPFEWFHSTFESVNLNPQNYRKDLITTIEKALIEWIEIFEKQ”, “HMTLTIEDGYVNAKLKTTVEGLAEDSTIKVDSIEYTNAGKNDILTVFVEDKPYRVEKYKINIAPEDS” is lower in “soluble fraction (log2)” value: -0.553 for the first, -1.12 for the second.

First: HMNPNYIKKLREKNQLTQEYLAAQIGVSRPTYAQIEQGQRGLTVTEAKKMADIFSLALDDFLAEKN
Second: HMEQYYVFFAGGMTIGTKEWYESILPENIATSYDDILEGKMMPASLEQIEFYNSHKDYDLYHLFYML
The “soluble fraction (log2)” value of the first is higher: -0.442 for the first, -1.4 for the second.

First: HMFTYDLSERELTIIELVAKGLNNKELADTLFLSEGTIRNYLSTLLNKLDLRDRTQLAIFYYQHL
Second: HMTQQYVEWKVYNVTTIKNKYGFRVKLIFQDGSDATQQKGGFTSKKAAEQARTEVIGQLYSNTYVVY
The “soluble fraction (log2)” value of the first is lower: -2.93 for the first, ≥ 0.43 for the second.

First: HMFERISELLTDEELAVYKRGRNANASSVPKHADIADYRRATGVEALFGYLYIKGEIDRINQLFELA
Second: HMSDIIVQGNRRLDTDLIITDSQIREIGTDEKSLSLAVKNLYKTGYFENVQIFKDNSVVFINVKENQ
The “soluble fraction (log2)” value of the first is lower: -0.635 for the first, -0.358 for the second.

Compared with “HMENLSGNDIKYLRKKYNLTQKELADALGLQKFGDRTIRRWEAEETHPSKLEQSSIQSFFNSLK”, “HMPVQSNRDALLDIGQTLQVQAWDAQGSARVSYRGSDWTAEFRGPGAAAPGLHRIIAVQGNRLIVEPA” is lower in “soluble fraction (log2)” value: 0.111 for the first, -0.164 for the second.

First: HMYNTDAMGVRIGELRRAKGLTQEAFAKTLGISAQAVSKWETGLGFPDISLLPMIAETLGTKIETLFGAE
Second: HMIIENIVVEIKGEVYNPGLYILEQGSRINDLIELSGGFTKDANGTDLNLAKVLSDGEVIIVSKKG
The “soluble fraction (log2)” value of the first is higher: -0.272 for the first, -1.35 for the second.

Compared with “HMLPDYLIELKKKADSGDAVSQNDIGNIYLYGLPRVNIYPDEKNIGIGIDYLYKAAWQDQVNAMTTI”, “HMNSFKIYPNPSSREVVRFNQAQDVKVYDTLGKLILSAKNTSAIDTKSFNTGIYFIKTANGLTKKLIV” is higher in “soluble fraction (log2)” value: -0.397 for the first, -0.0877 for the second.

First: HMSISSSEAARSAVASSGGTVLGVSKASHGGYKAWAVRIQRADGSVVTGYVDRASGTVYDWVVNQAA
Second: HMTTIFDNINGELRRRHLTQQDLAKTIEIDRRTWSKWQDKNDMPASVLLQIAKWLNVTLDYLTRD
The “soluble fraction (log2)” value of the first is higher: 0.379 for the first, 0.0559 for the second.

“HMGSKDLPFSTFMSEIDKGNITSVDIRGNEIQGTFANGTKFRTYSPNYPNLVEKLNGKGVSITAGPV” and “HMSDTSAIEKIIDEVLSDESSQKAINDIKNGNEKVYGFLVGQVMKKSQGKANPGLVQKMLREKIAK” are within 0.2 log units of each other in “soluble fraction (log2)” value: 0.211 for the first, 0.22 for the second.

Compared with “HMTMNYFIIENNQQVGPLTLEQLVARNITSDTLVWKEGMEDWQPAWKVDELHTVLDQIRANAEQ”, “HMESPELIHILKEAEWQIWQQIQGLPEKQRIAMTLFAMDDLSYQEIADVMKVSVSAIESLLFRARTQLKKY” is higher in “soluble fraction (log2)” value: -1.19 for the first, -0.71 for the second.

Compared with “HMQDREIHIHAGREVLEKELSRLSLHLKNTNLQEYAARFNVKTAEDILAGIGAGDIRPAHVVNLIADKL”, “HMHQKELLNLSYKEAKRYILDDFERVFFTNLLRKTGGNVSRAAQLAQVHRKNLYVKLTELGIDPRQFG” is lower in “soluble fraction (log2)” value: -0.222 for the first, -0.585 for the second.

Going from “HMQVEYTRGELLQDLKEENVLYATITPSRETPTGEVDFVFKDKSIKTLYVTDVSEIEGLLMDYGIDPEVKK” to “HMINLVPFELKFITAQVLDDIIKKIGINADTIILDINPKKIWVYAGEQELSDIQNIVKNVDVEDNI”, the “soluble fraction (log2)” value falls from -0.367 to -2.17.

In the case of “HMTKGVQMFAEQLKRTRQSRHYSQAEIASKLGVTQQAIAKWETGVSTPSPTSISKLSDILGISTDVLLKGA”, the “soluble fraction (log2)” value is reported as ≥ 0.43.
